Data on five molecules can be found in article PMC11059408, “Atypical heat shock transcription factor HSF5 is critical for male meiotic prophase under non-stress conditions” (Nature Communications, 2023).

Series [1] concerns the molecule itself. As to the kind of experiment: SEC-MALS; after heat treatment at 42 °C for 30 min; 100 μL of MBP-full length HSF5 (12.6 μM) or HSF5-DBD (26.6 μM) injected; PROTEIN KW-803 column; 25 mM HEPES/KOH pH 7.2, 150 mM KCl.
Series [2] has as its target T1, HSF5 N-terminal protein (HSF5-DBD) (Mus musculus, UniProt Q5ND04 1-209).
T1 sequence: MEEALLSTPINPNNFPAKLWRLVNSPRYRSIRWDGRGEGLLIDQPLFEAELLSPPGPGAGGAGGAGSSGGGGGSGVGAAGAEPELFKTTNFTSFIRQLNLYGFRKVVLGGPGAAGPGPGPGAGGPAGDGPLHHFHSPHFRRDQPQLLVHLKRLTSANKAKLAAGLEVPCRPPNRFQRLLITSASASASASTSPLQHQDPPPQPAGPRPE
As to the kind of experiment: EMSA; 0.04 pmol probe, protein/DNA molar ratio 15.6-250; shifts completely abolished; 20 mM Tris-HCl pH 8.0, 100 mM NaCl, 2 mM MgCl2, 10 ul, 25 C, 10 min; 8% polyacrylamide gel in Tris-borate pH 8.3, 2 mM EDTA. Particulars: protein: recombinant; tags: His (pET19b, E. coli; Ni-NTA purified); label: 32P (Klenow, [a-32P]dCTP); 5' overhang 3 nt (AGG) on both strands before Klenow labelling. For orientation: A gel shift assay detects complexes by their altered migration in electrophoresis.

Series [3] has as its target T1, HSF5 N-terminal protein (HSF5-DBD). As to the kind of experiment: competition; 1 uM protein, 0.04 pmol labeled T probe, 1-125 fold excess competitor; did not compete; 20 mM Tris-HCl pH 8.0, 100 mM NaCl, 2 mM MgCl2, 10 ul, 25 C, 10 min; 8% polyacrylamide gel in Tris-borate pH 8.3, 2 mM EDTA. Conditions: protein: recombinant; tags: His (pET19b, E. coli; Ni-NTA purified); 5' overhang 3 nt (AGG) on both strands.

For series [4] the target is unchanged. As to the kind of experiment: EMSA; 0.04 pmol probe, protein/DNA molar ratio 15.6-250; three shifted bands; 20 mM Tris-HCl pH 8.0, 100 mM NaCl, 2 mM MgCl2, 10 ul, 25 C, 10 min; 8% polyacrylamide gel in Tris-borate pH 8.3, 2 mM EDTA. Conditions: protein: recombinant; tags: His (pET19b, E. coli; Ni-NTA purified); label: 32P (Klenow, [a-32P]dCTP); 5' overhang 3 nt (AGG) on both strands before Klenow labelling.

Series [5] has the same target. As to the kind of experiment: competition; 1 uM protein, 0.04 pmol labeled T probe, 1-125 fold excess competitor; 20 mM Tris-HCl pH 8.0, 100 mM NaCl, 2 mM MgCl2, 10 ul, 25 C, 10 min; 8% polyacrylamide gel in Tris-borate pH 8.3, 2 mM EDTA. Conditions: protein: recombinant; tags: His (pET19b, E. coli; Ni-NTA purified); 5' overhang 3 nt (AGG) on both strands.

B1: His-MBP-fused full-length HSF5 protein (natural protein, mouse, UniProt Q5ND04 1-624, looked up)
chain: MEEALLSTPINPNNFPAKLWRLVNSPRYRSIRWDGRGEGLLIDQPLFEAELLSPPGPGAGGAGGAGSSGGGGGSGVGAAGAEPELFKTTNFTSFIRQLNLYGFRKVVLGGPGAAGPGPGPGAGGPAGDGPLHHFHSPHFRRDQPQLLVHLKRLTSANKAKLAAGLEVPCRPPNRFQRLLITSASASASASTSPLQHQDPPPQPAGPRPEQHGPVAVGQFHRSFRRDNLSPYSYVSTSSHNHSAFPLKGLDRTPIPPRTWQNSLGMHPGQVETSPTFSDKGVPFPVLQRFPTEVTYTLQPSATSVHVQQGPQTMVSSSQKYSNYTPSAQYSQAYYPTAVLQCCSPPTHMDALSSCVTPTASSYAHCNYFQNPPMQSSYPVEFLPSNWPCSATDENKKTEVNLEAVFQIVDELHSSPKLEMVKVEPVETQCPSSQANRGQHILPNANSSNPSSTSQASQLEPLTPVGSDITSFVVGTEQAITCSLPQSPEYIYTIHTAQPLENSTMQESATIQQTHVKLKEQLNHNPSPSSVVFVQEGLPFSTPQVDSSIKCQTNPSENILPSEQMGFLISEMGPANKSTKDTGLSTPARYRERRSNSQGKSPDLHLLVDVACKQEHFPKEEELKE
notes: Heat shock transcription factor 5 (HSF5), mouse, full length; A tobacco etch virus protease cleavage site lies between His6-MBP and HSF5; the fusion was not cleaved for SEC-MALS; also called MBP-full length HSF5; His-MBP-full length HSF5; source: pMAL-c6T construct, purified (HisTrap HP, gel filtration on Superdex 200 pg 16/600); not shown: His6, N-terminal, kept; MBP, N-terminal, kept
With B1, the binding result in series [1] was “binds”.

B2: HSF5-EMSA mutant (M) probe (dsDNA)
DNA 1: AGGGCATAGATAACCTTGAGTCTATCTTGAGTCTATCTTGAAACTACTG
DNA 2: AGGCAGTAGTTTCAAGATAGACTCAAGATAGACTCAAGGTTATCTATGC
Turning to B2, in series [2], the binding result was “no binding”.

B3: unlabeled mutant (M) competitor (dsDNA)
DNA 1: AGGGCATAGATAACCTTGAGTCTATCTTGAGTCTATCTTGAAACTACTG
DNA 2: AGGCAGTAGTTTCAAGATAGACTCAAGATAGACTCAAGGTTATCTATGC
Regarding B3, the binding result in series [3] is reported as “no binding”.

B4: HSF5-EMSA target (T) probe (dsDNA)
DNA 1: AGGGCATAGATATGGAACTCTCTTAGAACTCTCTTAGAACTTACTACTG
DNA 2: AGGCAGTAGTAAGTTCTAAGAGAGTTCTAAGAGAGTTCCATATCTATGC
B4: in series [4], the binding result is given as “binds”.

B5: unlabeled target (T) competitor (dsDNA)
DNA 1: AGGGCATAGATATGGAACTCTCTTAGAACTCTCTTAGAACTTACTACTG
DNA 2: AGGCAGTAGTAAGTTCTAAGAGAGTTCTAAGAGAGTTCCATATCTATGC
In the case of B5, the binding result in series [5] is given as “binds”.
